# Results taken from paper PMC10572367, “The Generation of a Nanobody-Based ELISA for Human Microsomal Epoxide Hydrolase” (International Journal of Molecular Sciences, 2023).
# B1: nanobody MQ30 (VHH)
# VHH: QVQLVESGGGVVQPGGSLRLSCVVSGSRFSLNFMGWFRQAPGKEREFVAALIWRGDVAHYAASNKGRFTVSKESAKNTVYLQLNSLEPEDTAVYSCAAQPWYSRDTYSDSDSYKYWGQGTQVTVSS
# notes: Selected from a phage library of an immunised llama; In the phage ELISA the clone stood on phage, not as the soluble purified VHH; also called VHH MQ30; native VHH MQ30; source: E. coli TOP10F', purified (B-PER extraction, Ni-NTA); in the phage ELISA as a phage clone
# B2: nanobody MQ4 (VHH)
# VHH: QVQLVESGGGLAQPGGSLRLSCDASGSPYIINDMGWYRQAPGKQRELVASITRRGITNVADSVKGRFTISRDNAKMTVYLQMNSLKSEDTALYNCHAQPAVTPRMDYWGQGTQVTVSS
# notes: Selected from a phage library of an immunised llama; In the phage ELISA the clone stood on phage, not as the soluble purified VHH; also called VHH MQ4; source: E. coli TOP10F', purified (B-PER extraction, Ni-NTA); in the phage ELISA as a phage clone
# B3: nanobody MQ17 (VHH)
# VHH: QLQLVESGGGLVQPGGSLTLSCAASGSIFTIDALGWFRQAPGKEREFVAALPWRDGVPYYAASNKGRFSVSKDSAKNTVFKNTVFLQVNNLEPEDTAVYSCAARPWYATSTYSDSDSYGYWGQGTQVTVSS
# notes: Selected from a phage library of an immunised llama; In the phage ELISA the clone stood on phage, not as the soluble purified VHH; also called VHH MQ17; source: E. coli TOP10F', purified (B-PER extraction, Ni-NTA); in the phage ELISA as a phage clone
# B4: nanobody MQM8 (VHH)
# VHH: QLQLVESGGGFVPPGGSLRLSCAASGFIFRFVGMGRYRQAPGKQRELVASITGNDYRNYADSVKGRFTISRDNYKNTVDLQMNSLKPEDTAVYYCNRVPLDFGSWGQGTQVTVSS
# notes: Selected from a phage library of an immunised llama; In the phage ELISA the clone stood on phage, not as the soluble purified VHH; also called VHH MQM8; source: E. coli TOP10F', purified (B-PER extraction, Ni-NTA); in the phage ELISA as a phage clone
# B5: MQM8-HRP (VHH)
# VHH: B4 VHH
# notes: as the VHH of m5 (MQM8); Named only as 'MQM8-HRP as a signal tracer'; also called HRP-labelled VHH MQM8
# B6: biotinylated VHH MQ30 (VHH)
# VHH: B1 VHH
# notes: as the VHH of m4 (MQ30); also called biotinylated MQ30; source: E. coli TOP10F', purified (Ni-NTA), then biotinylated
# Columns and labels:
# [1] = target: T1, human mEH in human tissue whole extracts (Homo sapiens, endogenous, UniProt P07099); assay: ELISA; sandwich ELISAs of formats A, B and C (mAb capture, native or biotinylated MQ30 detection) on human whole tissue extracts diluted 10^3, 10^4 and 10^5-fold; settings: one partner purified
# T1 construct: human microsomal epoxide hydrolase, endogenous in human tissue extracts (adrenal, esophagus, liver, pancreas, ovary, heart, hippocampus); also called bioactive mEH in the crude extracts; source: endogenous, whole tissue extracts of human commercial tissue samples (BioChain Institute)
# T1 sequence (P07099 whole entry): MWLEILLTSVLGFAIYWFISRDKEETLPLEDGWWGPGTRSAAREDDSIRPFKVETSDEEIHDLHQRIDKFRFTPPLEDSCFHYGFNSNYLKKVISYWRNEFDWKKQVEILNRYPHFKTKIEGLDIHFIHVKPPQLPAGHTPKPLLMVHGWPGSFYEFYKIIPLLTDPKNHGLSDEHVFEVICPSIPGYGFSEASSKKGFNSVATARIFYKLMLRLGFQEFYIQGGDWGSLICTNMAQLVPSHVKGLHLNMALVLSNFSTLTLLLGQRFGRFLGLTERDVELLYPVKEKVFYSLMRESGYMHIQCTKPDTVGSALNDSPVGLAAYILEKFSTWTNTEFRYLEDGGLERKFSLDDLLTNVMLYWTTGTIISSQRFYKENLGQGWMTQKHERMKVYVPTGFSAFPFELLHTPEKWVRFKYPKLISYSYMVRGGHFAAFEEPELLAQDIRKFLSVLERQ
# human EH-3 (human) = target: T2, human EH-3 (human) (UniProt Q9H6B9); assay: ELISA; cross-reactivity in the format A sandwich (mAb capture, MQ30 detection): epoxide hydrolases spiked at 1000 ng mL^-1 in PBS, read against the human mEH standard curve; a signal needs capture by the mAb as well as MQ30
# T2 sequence: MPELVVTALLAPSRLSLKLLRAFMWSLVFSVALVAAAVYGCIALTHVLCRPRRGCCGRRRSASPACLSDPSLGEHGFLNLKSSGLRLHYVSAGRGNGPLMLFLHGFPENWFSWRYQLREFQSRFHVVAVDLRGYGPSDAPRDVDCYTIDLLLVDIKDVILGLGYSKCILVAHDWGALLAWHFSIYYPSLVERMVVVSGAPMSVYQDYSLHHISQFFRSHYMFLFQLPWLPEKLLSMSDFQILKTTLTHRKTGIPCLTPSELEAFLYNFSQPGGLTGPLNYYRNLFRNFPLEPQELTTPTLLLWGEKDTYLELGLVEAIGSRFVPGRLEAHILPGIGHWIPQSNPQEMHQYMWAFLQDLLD
# human EH-4 (human) = target: T3, human EH-4 (human) (UniProt Q8IUS5); assay: as above
# T3 sequence: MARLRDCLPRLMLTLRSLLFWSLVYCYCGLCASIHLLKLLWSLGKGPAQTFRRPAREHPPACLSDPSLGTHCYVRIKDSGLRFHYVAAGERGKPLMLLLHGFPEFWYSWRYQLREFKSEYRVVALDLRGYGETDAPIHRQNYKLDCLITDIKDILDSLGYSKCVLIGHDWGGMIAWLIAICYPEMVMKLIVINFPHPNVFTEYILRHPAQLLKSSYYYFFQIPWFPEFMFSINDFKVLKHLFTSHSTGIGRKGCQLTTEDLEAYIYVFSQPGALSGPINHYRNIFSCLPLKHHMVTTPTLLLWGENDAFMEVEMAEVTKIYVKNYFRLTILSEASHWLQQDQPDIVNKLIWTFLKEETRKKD
# human sEH (human) = target: T4, human sEH (human) (UniProt P34913); assay: as above
# T4 sequence: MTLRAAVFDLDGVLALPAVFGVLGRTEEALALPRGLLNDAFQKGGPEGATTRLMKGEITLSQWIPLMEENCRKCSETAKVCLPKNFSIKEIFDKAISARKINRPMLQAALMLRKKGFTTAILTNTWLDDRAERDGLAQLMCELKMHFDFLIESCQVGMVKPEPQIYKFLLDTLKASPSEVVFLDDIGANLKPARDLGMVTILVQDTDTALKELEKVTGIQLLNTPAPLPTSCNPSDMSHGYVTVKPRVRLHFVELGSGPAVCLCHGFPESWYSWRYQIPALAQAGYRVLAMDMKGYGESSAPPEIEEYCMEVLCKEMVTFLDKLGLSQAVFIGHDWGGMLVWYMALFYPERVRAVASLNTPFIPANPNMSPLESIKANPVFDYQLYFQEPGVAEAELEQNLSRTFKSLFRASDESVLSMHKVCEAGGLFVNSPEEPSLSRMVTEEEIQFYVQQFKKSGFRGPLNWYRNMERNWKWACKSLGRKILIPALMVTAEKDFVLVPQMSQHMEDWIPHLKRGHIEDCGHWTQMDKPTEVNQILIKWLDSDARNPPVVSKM
# rat mEH (rat) = target: T5, rat mEH (rat) (UniProt P07687); assay: as above
# T5 sequence: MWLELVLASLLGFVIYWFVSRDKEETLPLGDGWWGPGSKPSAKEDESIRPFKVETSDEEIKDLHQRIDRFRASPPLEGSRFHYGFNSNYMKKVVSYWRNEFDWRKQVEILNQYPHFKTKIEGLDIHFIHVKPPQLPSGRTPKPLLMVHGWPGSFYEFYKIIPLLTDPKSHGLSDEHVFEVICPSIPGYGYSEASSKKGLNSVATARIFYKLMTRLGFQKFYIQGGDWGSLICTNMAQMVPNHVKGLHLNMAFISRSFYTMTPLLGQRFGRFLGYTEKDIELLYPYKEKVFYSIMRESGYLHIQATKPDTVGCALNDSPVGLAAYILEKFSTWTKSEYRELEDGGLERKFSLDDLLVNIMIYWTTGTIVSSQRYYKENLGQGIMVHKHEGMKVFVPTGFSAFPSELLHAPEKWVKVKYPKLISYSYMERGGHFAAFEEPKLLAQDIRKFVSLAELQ
# [2] = target: T6, recombinant human microsomal epoxide hydrolase (Homo sapiens, UniProt P07099, final four amino acid residues of mEH (LERQ) were mutated to the Factor Xa …); assay: ELISA; phage ELISA of randomly picked single phage clones against recombinant human mEH; settings: one partner purified
# T6 construct: human microsomal epoxide hydrolase (mEH), Uniprot P07099; Extracted from microsomes with beta-DDM; also called mEH; human mEH; source: Tni (Trichoplusia ni) insect cells, baculovirus, purified (Ni-NTA, size exclusion chromatography)
# T6 sequence (P07099 other isoform, or with tags, fused parts or gaps with the stated changes): as the sequence (P07099 whole entry) above, with L452I, R454G, Q455R counted along it
# [3] = target: T6, recombinant human microsomal epoxide …; assay: ELISA; direct ELISA testing the titer of the candidate nanobodies; format not described; settings: both partners purified
# [4] = target: T6, recombinant human microsomal epoxide …; assay: far-Western, overlay or dot blot; Western blot: recombinant human mEH denatured, run on Mini-protean TGX gels, transferred to PVDF; nanobody as detection antibody (HRP-labelled anti-HA as tracer, or MQM8-HRP); settings: both partners purified
binder,measurement,setting,value
B1,binding result,[1],binds
same,cross-reactivity,human EH-3 (human),< 0.01%
same,cross-reactivity,human EH-4 (human),< 0.01%
same,cross-reactivity,human sEH (human),< 0.01%
same,cross-reactivity,rat mEH (rat),0.11%
same,measured concentration at 1000 ng mL^-1 spiked,rat mEH (rat),1.05 ng/mL
B2,binding result,[2],binds
B3,binding result,[3],binds
B4,binding result,[3],binds
B5,binding result,[4],binds
B6,binding result,[1],binds
